{"source": "the DeepSol protein solubility set", "data": [{"assay": "soluble on expression in E. coli; label from the status in PepcDB or PDB records", "values": [{"sequence": "METCDLLAFGAHPDDVEIGMGGTIAKYVRRGYRIVICDLTQAELSSNGTVDERQREAAEAARRLGVSERFNLGLPDRGLYVEEEAIRQIAAVIRRCRPRLVFAPYWEDRHPDHGRCARLVEEAVFSAGIRRYGAGELGDAHRVRAVYYYMINAFCRPHFLIDISETIDDKLDSLRAYESQFQKRPGSVDTPLTNGYIEMIESRERWFGQQIGAAYAEGFLTKTPIHLSNLFEEER", "soluble on expression in E. coli": "not soluble"}, {"sequence": "METLGVQTNSELREELNRLKEENARLKKELNQHQVIVNNTLDAIFICDNEMRIVQANEATERMLQVDSEDLKKRSVLDFLFSIPKDELNLSVKKFFKKGFLWKEVPIRLDCGATKYIEFLAKRGIGEDFFFVVMRDIS", "soluble on expression in E. coli": "not soluble"}, {"sequence": "METLIAISRWLAKQHVVTWCVQQEGELWCANAFYLFDAQKVAFYILTEEKTRHAQMSGPQAAVAGTVNGQPKTVALIRGVQFKGEIRRLEGEESDLARKAYNRRFPVARMLSAPVWEIRLDEIKFTDNTLGFGKKMIWLRDSGTEQA", "soluble on expression in E. coli": "soluble"}, {"sequence": "METRREERIGQLLQELKRSDKLHLKDAAALLGVSEMTIRRDLNNHSAPVVLLGGYIVLEPRSASHYLLSDQKSRLVEEKRRAAKLAATLVEPDQTLFFDCGTTTPWIIEAIDNEIPFTAVCYSLNTFLALKEKPHCRAFLCGGEFHASNAIFKPIDFQQTLNNFCPDIAFYSAAGVHVSKGATCFNLEELPVKHWAMSMAQKHVLVVDHSKFGKVRPARMGDLKRFDIVVSDCCPEDEYVKYAQTQRIKLMYLEHHHHHH", "soluble on expression in E. coli": "soluble"}, {"sequence": "METYAVFGNPIAHSKSPFIHQQFAQQLNIEHPYGRVLAPINDFINTLNAFFSAGGKGANVTVPFKEEAFARADELTERAALAGAVNTLMRLEDGRLLGDNTDGVGLLSDLERLSFIRPGLRILLIGAGGASRGVLLPLLSLDCAVTITNRTVSRAEELAKLFAHTGSIQALSMDELEGHEFDLIINATSSGISGDIPAIPSSLIHPGIYCYDMFYQKGKTPFLAWCEQRGSKRNADGLGMLVAQAAHAFLLWHGVLPDVEPVIKQLQEELSALEHHHHHH", "soluble on expression in E. coli": "soluble"}, {"sequence": "METYLEIETLIKRIFNSFRHEVEAVLDKRLSGSEYRVLSLISSGLTKTSDLAKTLDVSASHITAITDTLVEEKLITRHRSEVDRRIIELKLTSNAEEFVKEIDKKKKEMIVKRFAVFSEYEQAEFRKLLKKLADGSQSNK", "soluble on expression in E. coli": "not soluble"}, {"sequence": "MEVDEDIELQKHQEQQSRKLQRFSEDNTGLMRNWNNPSSRIIRVSRASGGKDRHSKVLTSKGLRDRRIRLSVATAIQFYDLQDRLGFDQPSKAVEWLINAASDSITDLPLLNTNFDHLDQNQNQTKSACSSGTSESSLLSLSRTEIRGKARERARERTAKDRDKDLQNAHSSFTQLLTGGFDQQPSNRNWTGGSDCFNPVQLQIPNSSSQEPMNHPFSFVPDYNFGISSSSSAINGGYSSRGTLQSNSQSLFLNNNNNITQRSSISSSSSSSSPMDSQSISFFMATPPPLDHHNHQLPETFDGRLYLYYGEGNRSSDDKAKERR", "soluble on expression in E. coli": "not soluble"}, {"sequence": "MEVKALAHAKNDSVAVATDDLKEGEEIQVAFLDNNEKTKITTAEVIPLGHKISLKDIKKGENVIEYGEVIGAATKDIKRGEHVHIHNIKSLRW", "soluble on expression in E. coli": "not soluble"}, {"sequence": "MEVRFKIYRYNPEVDKKPYYDEYTVEVENEGVKVLTALELIKEQDPTLALRRSCREGVCGSDGMNINGKNRLACITSVGELKQPIKVNPLPGLPVIRDLIVDMKQFYKNYEKVKPYLINDDEPPVKERLQSPEDRAKLDGLYECILCACCTTSCPSFWWNPDKFIGPSGLLQAYRFIADSRDTATEQRLEDLKDPFSLFRCRTIMNCVSVCPKGLNPTEAIGKIRSALLKKNV", "soluble on expression in E. coli": "not soluble"}, {"sequence": "MEVTDVRLRRVNTEGRMRAIASITLDHEFVVHDIRVIDGNNGLFVAMPSKRTPDGEFRDIAHPINSGTRSKIQDAVLTEYHRLGELEEVEFEEAGAS", "soluble on expression in E. coli": "not soluble"}, {"sequence": "MEYFMSGKSIFDKLWDRHVITGDEGQPQLMYVDQHYIHEVTSPQAFQGLRDAGRKVRRPDLTFGTFDHNVPTVNIFDIRDAISKAQIDKLAENVIEFGIDNASHGSDKQGIVHMVGPETGRTQPGKFIVCGDSHTATHGAFGTIAFGIGTSEVEHVFATQTLWQVKPKK", "soluble on expression in E. coli": "not soluble"}, {"sequence": "MEYGDRHITVVDEHGNEQLCEILFTFESDDFGKSYVFYYPVGVEAEDENGETEVHVSAFIPGDENKEGELLPIETEEEWDMIEEVWNTFCAEQEEEDDE", "soluble on expression in E. coli": "not soluble"}, {"sequence": "MEYIKRKKTRKVRVGDIYIGGDAKITVQSMTNTDTRDVEATVNQIKMLEDIGCDIIRVAVVDQEAAEAIKEIKKSIKIPLVADIHFDYRLAISSMENGADKIRLNPGNIGDRERVRKVVEVAKSRQIPIRIGVNSGSLEKNVIEKYGGITPEAMVESALQHVRILEELDFYDIVISLKASSVPMTIAAYRLMSEKTDYPLHIGVTEAGTVFKGTIKSCAGLGCLLAEGIGDTIRVSLTGDPKEEVLVGHELLRALGIEKGGIELVSCPTCGRCQIDLIGIAEKVEERLEGLDKNIKVAIMGCAVNGPGEAKEADIGIAGGKGEVLLFKKGVIVRKIPQERAVEELMEEILRM", "soluble on expression in E. coli": "soluble"}, {"sequence": "MEYPMSYTFRATFPALFLSLMLPCALPALAADPAPAKDAAAQAPVERAPLLSRSQEDAIALERQLPREDQQQLQAGDESFLALWKPANTDAPQGAVIILPGDAESPDWPDTVGPLRRKFPDVGWSSLSITLPDAQDNTLLPREPDAAAGDANAAKPEETPKDAAAKAPDPAAEAEALAAVATAKAAADEERNKAQAELIFARIESAISFAQQNKARNIVLLGHSSGAYWAARFLNERPSPAVQKLVMVAAREPVDAAPSLLAMVPGLKIKTADFIYKNPEDQAAKARLQASKRAKGPGFTQIGLINIVGNEETEQEQMFRRIRGWVEAKEEK", "soluble on expression in E. coli": "not soluble"}, {"sequence": "MFADRLFNAMERNEPAPGMVLVAAPSMESEDFARSVILIIEHSEYATFGVNLASRSDVAVFNVIPEWVPCVTKPQALYIGGPLNQQSVVGVGVTAQGVDAARVDNLTRLANRLVMVNLGADPEEIKPLVSGMRLFAGHAEWAPGQLAQEIENGDWFVAPALPSDVTAPGSVDVWGDVMRRQPMPLPLYSTFPVNVVGENLEHHHHHH", "soluble on expression in E. coli": "soluble"}, {"sequence": "MFAIAHNSILRDSLAGILQLSPERVFDEYRPPPFTGNIVVGVEDLRDANLRFAVRYFLANVEKSISLFIVKQEWSENDEKFFDDLVKTEYRRAHDLNQVAIDRVNKLPDNEWKSDRLEQLNEWRTIPAINYSLLTLNDNLKNQIDALAKVTPCTISDDEEQITNKPPVLHWTADPLEGEIQFIAQLNFPLSGPDDSSFREICRLLKPHFETSYEWTGGILLTSDPVRLHVQRFNDTQIELAARICVDELEGDEADRPIRFIWPYLAVSLKQALQVLGEHPHLQYSISFVPFGSIFFKSSEIEARVFDATVFCSTALKYDKVGFRVGEDVHHVDIAHIFPDGTYPSLSRLLSMNPPSPRFSRPESVNDSVSPSLMSEPPTPGGLVAPHNRGRRVSFGTIKLMSDGPTTPEIPILNGNSNDGSAKTVDAFIDKMLQQTMDQLAV", "soluble on expression in E. coli": "not soluble"}, {"sequence": "MFDRYESGERAILVHVFFSQDRDTDDLLEFESLVSSAGIESLQVVTGSRKAPHPKYFVGEGKAEEIAQAVKETGAFVVLFNHALTPAQERNLERLCECRVIDRTGLILDIFAQRARTHEGKLQVELAQLRHLATRLVRGWTHLERQKGGIGLRGPGETQLETDRRLLRNRISQILLRLERVEKQREQGRRSRVRADVPTVSLVGYTNAGKSTLFNKITSAGVYVADQLFATLDPTLRRIQVDDVGDTVLADTVGFIRQLPHDLVAAFKATLQETRQASLLLHVVDAADPRLDENIDAVNDVLAEIEADEIPALLVMNKIDMLDDFVPRIDRNEENLPIRVWLSAQTGDGIPLLFQALTERLSGEIAQYTLHLPPQAGRLRSRFYQLQAIEKEWIEEDGQIGLVIRMPIADWRRLCKKEQELMDYIALEHHHHHH", "soluble on expression in E. coli": "not soluble"}, {"sequence": "MFDVDIKFGDVYVRNIEEKDIGELKEILKDKKFYLNDEELKEIFLEYYMSECEFFTKILKKGKFVGVFRGRIEFKSSNMAWISYFYVDERYSSYKDSQDILMNILEYFSESFGVTDFITGVTNSEKDMIELWENNDFKTVRINKEFYSDRGYKEDLVIMKKYSAI", "soluble on expression in E. coli": "not soluble"}, {"sequence": "MFEAEIDCNIPGALWCGELYVLEQDVVFPDLLRIDRFCTSKSKKMFRFDVYPGSDFPTVDLELTYKFNHNCSADGETYCVKPKWSKKVNGRVGQSVGFDIDARPHGKPSRCKPPFYF", "soluble on expression in E. coli": "not soluble"}, {"sequence": "MFEKQEVEQKKELKILEIIKEAIELGASDIHLTAGAPPAVRIDGYIKFLKDFPRLTPEDTQKLAYSVMSEKHRQKLEENGQVDFSFGVRGVGRFRANVFYQRGSVAAALRSLPAEIPEFKKLGLPDKVLELCHRKMGLILVTGPTGSGKSTTIASMIDYINQTKSYHIITIEDPIEYVFKHKKSIVNQREVGEDTKSFADALRAALREDPDVIFVGEMRDLETVETALRAAETGHLVFGTLHTNTAIDTIHRIVDIFPLNQQEQVRIVLSFILQGIISQRLLPKIGGGRVLAYELLIPNTAIRNLIRENKLQQVYSLMQSGQAETGMQTMNQTLYKLYKQGLITLEDAMEASPDPKELERMIRGGRHHHHHH", "soluble on expression in E. coli": "soluble"}, {"sequence": "MFEKSFTLCDMEPTEINGGRFYARPLHNDERIDDSPALQLVDAHLTVDEARTAWNHDTIYTWAVCEQTNVEMIALAALHITETATVLDIAPVGDPNRKLPNDPVLTPKTVGDAVTEIRGPITRWCTAHGINISN", "soluble on expression in E. coli": "not soluble"}, {"sequence": "MFFSVVIPTYNRLPILEKCLRALEQQTFDETLISGYEIVVVDDGSTDGTLAWLDGHCQGFPHVRTWEQDHQGPAAARNLGVKEAAGDTIIFIDSDLVVTDIFLQAHAEGLQRGQKQYNSDRVFTYGAVVNTCNFDSPQSEPYKLTDYSAAFFATGNVAIAKQWLLEAGLFDTGFQLYGWEDLELGVRLKNLGLKLVKCPRAVGYHWHPPFSLQQIPKLIDQEIQRGRMGVLFYQKHPTWEVRLMIQMTRLHWFLWGLLSLGGRLNEKTMAPLLQWLIDHDRPQLALEIARIFLNWYNVQGVYAAFAESQSSHLEHHHHHH", "soluble on expression in E. coli": "not soluble"}, {"sequence": "MFGLRTRNQEAESEYRRFIKGLSDSMAMIEFDTRGIILNANDLFLSCVGYTREAIVGKHHSIFCDRGYVQSPRYQQFWDDLKMGKHKRGTFERLTSQRERLVLEASYFPIESEHGQIEKVVKIASDVTQQRLESEQKEAILNALDLSLATIEFDREGYILTANQNFLKTLGYELSDVQGKHHKLFCFDDFYQENPGFWKDLAAGQFKSGQFLRRSASGDKVYIEATYNPIFDPAGNVIKVVKFASDITDKVQRDLNISQAIADSSFIARNASEEATSNVCGAEHSLNEFRTMIEEVLRAVTACDDK", "soluble on expression in E. coli": "not soluble"}, {"sequence": "MFISCFDMFKIGIGPSSSHTLGPMKAGKAFVDTLEERDLLDRVTRVRADVYGSLSLTGIGHATDKAIIMGLAGFEPETVDIDAMPGFLEIVASLQRLALAGGKKTVDFSRTEGIVFHNTCLQLHENGMTITAFEGDEVLLTKAYFSIGGGFIVDKEHFGLPVEDTAVVPFPYNTAEEVLAHCDREGMSIPEFAWRNEVAANGEEAVREHLAKVWKVMQSGIERGSSAEGILPGDLRVPRRAKALRERLEATSENEPLRMMSWLNMFAMAVNEENASGGRVVTSPTNGACGVLPAVLSYWDRLVKPVGEQEVIDYLLTCGVVGALYKKNASISGAEVGCQGEVGVACSMAAAGIAQLMGATPAQAFAAAEIAMEHNLGLTCDPVCGQVQVPCIERNAIAAVTSVNAANMSLQRGSTPTVSLDQVIQTMYQTGKDMDSKYRETSLGGLAKVLMPRLMPCS", "soluble on expression in E. coli": "not soluble"}]}]}
